# Columns and labels:
# Assay in all cases: anti-FLAG co-IP LC-MS, exp 3, +IFNg +Dox
# [1] = target: 26S proteasome non-ATPase regulatory subunit 2 (Homo sapiens) (UniProt Q13200)
# [2] = target: 40S ribosomal protein S3a (Homo sapiens) (UniProt P61247)
# [3] = target: 60 kDa heat shock protein, mitochondrial (Homo sapiens) (UniProt P10809)
# [4] = target: 60S ribosomal protein L3 (Homo sapiens) (UniProt P39023)
# [5] = target: ADP/ATP translocase 2 (Homo sapiens) (UniProt P05141)
# [6] = target: AP-2 complex subunit alpha-1 (Homo sapiens) (UniProt O95782)
# [7] = target: AP-2 complex subunit beta (Homo sapiens) (UniProt P63010)
# [8] = target: Alpha-actinin-4 (Homo sapiens) (UniProt O43707)
# Chain of Alpha-actinin-4 (Homo sapiens) (O43707 whole entry): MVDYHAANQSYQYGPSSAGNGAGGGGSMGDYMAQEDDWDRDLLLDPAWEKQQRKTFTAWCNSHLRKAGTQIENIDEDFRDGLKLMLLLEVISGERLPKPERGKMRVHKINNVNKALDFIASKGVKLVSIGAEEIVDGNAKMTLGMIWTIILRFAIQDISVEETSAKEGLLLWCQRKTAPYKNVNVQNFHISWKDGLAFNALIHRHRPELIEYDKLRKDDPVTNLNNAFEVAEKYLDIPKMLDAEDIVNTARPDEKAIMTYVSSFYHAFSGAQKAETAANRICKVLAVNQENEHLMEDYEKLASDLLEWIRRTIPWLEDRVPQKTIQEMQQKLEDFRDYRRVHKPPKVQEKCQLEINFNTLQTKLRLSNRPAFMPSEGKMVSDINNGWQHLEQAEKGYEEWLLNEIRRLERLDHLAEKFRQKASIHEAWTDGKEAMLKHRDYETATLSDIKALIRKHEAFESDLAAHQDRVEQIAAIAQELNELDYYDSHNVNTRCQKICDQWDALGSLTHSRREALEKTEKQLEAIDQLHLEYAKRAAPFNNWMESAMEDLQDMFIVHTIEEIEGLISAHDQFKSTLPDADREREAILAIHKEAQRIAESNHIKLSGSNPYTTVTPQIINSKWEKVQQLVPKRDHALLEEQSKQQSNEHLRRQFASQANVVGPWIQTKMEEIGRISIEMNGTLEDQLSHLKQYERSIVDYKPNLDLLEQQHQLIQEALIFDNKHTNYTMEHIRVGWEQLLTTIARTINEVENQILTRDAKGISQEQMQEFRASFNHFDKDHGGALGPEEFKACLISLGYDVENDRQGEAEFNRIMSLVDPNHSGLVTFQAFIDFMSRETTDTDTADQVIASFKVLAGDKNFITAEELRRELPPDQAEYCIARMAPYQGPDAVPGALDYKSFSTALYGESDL
# [9] = target: Antigen peptide transporter 1 (Homo sapiens) (UniProt Q03518)
# Chain of Antigen peptide transporter 1 (Homo sapiens) (Q03518 whole entry): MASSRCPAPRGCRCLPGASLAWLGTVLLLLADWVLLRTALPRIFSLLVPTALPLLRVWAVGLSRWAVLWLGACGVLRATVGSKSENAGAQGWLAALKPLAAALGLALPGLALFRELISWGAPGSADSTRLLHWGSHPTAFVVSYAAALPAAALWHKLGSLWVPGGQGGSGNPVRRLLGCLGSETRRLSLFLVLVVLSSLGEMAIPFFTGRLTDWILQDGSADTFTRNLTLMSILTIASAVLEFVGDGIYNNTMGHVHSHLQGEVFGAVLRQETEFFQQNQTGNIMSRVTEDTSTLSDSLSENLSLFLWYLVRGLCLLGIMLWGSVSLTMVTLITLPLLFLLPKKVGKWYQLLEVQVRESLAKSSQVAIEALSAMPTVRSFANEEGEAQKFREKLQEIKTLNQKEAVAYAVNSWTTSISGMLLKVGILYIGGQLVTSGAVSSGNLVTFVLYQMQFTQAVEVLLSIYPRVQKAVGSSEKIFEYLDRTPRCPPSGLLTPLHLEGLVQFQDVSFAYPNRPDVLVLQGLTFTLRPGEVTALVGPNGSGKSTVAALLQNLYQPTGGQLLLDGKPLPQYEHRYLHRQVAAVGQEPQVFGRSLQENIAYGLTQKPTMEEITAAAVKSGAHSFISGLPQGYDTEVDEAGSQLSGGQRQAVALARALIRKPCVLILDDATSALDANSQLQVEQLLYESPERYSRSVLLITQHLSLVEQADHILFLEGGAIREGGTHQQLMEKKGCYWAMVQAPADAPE
# [10] = target: Clathrin heavy chain (Homo sapiens) (UniProt Q00610)
# [11] = target: Elongation factor 1-gamma (Homo sapiens) (UniProt P26641)
# [12] = target: Endoplasmic reticulum chaperone BiP (Homo sapiens) (UniProt P11021)
# [13] = target: Fibronectin (Homo sapiens) (UniProt P02751)
# Filamin-C (Homo sapiens) = Filamin-C (Homo sapiens) (UniProt Q14315)
# [14] = target: Heat shock cognate 71 kDa protein (Homo sapiens) (UniProt P11142)
# [15] = target: Heat shock protein HSP 90-beta (Homo sapiens) (UniProt P08238)
# [16] = target: Heterogeneous nuclear ribonucleoprotein H (Homo sapiens) (UniProt G8JLB6)
# [17] = target: Importin-5 (Fragment) (Homo sapiens) (UniProt O00410)
# [18] = target: Junctional sarcoplasmic reticulum protein 1 (Homo sapiens) (UniProt Q96MG2)
# Chain of Junctional sarcoplasmic reticulum protein 1 (Homo sapiens) (Q96MG2 whole entry): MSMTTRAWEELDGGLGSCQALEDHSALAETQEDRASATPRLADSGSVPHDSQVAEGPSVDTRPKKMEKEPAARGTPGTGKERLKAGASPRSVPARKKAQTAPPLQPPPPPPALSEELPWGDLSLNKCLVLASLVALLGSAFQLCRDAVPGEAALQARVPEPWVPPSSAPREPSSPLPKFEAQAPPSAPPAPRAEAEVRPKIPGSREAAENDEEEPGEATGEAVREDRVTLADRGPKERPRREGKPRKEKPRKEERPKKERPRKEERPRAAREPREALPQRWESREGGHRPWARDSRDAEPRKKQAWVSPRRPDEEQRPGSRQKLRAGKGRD
# [19] = target: Plasminogen activator inhibitor 1 (Homo sapiens) (UniProt P05121)
# [20] = target: Plasminogen activator inhibitor 1 RNA-binding protein (Homo sapiens) (UniProt Q8NC51)
# Chain of Plasminogen activator inhibitor 1 RNA-binding protein (Homo sapiens) (Q8NC51 2-408 limits assumed): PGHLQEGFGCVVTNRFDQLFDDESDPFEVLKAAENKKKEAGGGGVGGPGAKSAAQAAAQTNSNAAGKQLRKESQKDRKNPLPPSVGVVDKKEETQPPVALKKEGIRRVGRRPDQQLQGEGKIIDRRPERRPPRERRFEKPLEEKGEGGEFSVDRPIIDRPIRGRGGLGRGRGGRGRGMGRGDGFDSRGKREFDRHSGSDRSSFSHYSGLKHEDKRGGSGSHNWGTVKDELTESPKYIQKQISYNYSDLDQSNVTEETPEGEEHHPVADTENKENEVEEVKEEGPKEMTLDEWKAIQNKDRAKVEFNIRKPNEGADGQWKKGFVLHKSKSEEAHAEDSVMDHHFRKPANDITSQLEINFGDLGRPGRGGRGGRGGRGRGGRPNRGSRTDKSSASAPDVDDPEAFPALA
# Plectin (Homo sapiens) = Plectin (Homo sapiens) (UniProt Q15149)
# [21] = target: Probable ATP-dependent RNA helicase DDX6 (Homo sapiens) (UniProt P26196)
# [22] = target: Protease serine 2 preproprotein (Homo sapiens) (UniProt A6XMV9)
# [23] = target: Protein disulfide-isomerase (Homo sapiens) (UniProt P07237)
# [24] = target: Ras GTPase-activating protein-binding protein 1 (Homo sapiens) (UniProt Q13283)
# Chain of Ras GTPase-activating protein-binding protein 1 (Homo sapiens) (Q13283 2-466 limits assumed): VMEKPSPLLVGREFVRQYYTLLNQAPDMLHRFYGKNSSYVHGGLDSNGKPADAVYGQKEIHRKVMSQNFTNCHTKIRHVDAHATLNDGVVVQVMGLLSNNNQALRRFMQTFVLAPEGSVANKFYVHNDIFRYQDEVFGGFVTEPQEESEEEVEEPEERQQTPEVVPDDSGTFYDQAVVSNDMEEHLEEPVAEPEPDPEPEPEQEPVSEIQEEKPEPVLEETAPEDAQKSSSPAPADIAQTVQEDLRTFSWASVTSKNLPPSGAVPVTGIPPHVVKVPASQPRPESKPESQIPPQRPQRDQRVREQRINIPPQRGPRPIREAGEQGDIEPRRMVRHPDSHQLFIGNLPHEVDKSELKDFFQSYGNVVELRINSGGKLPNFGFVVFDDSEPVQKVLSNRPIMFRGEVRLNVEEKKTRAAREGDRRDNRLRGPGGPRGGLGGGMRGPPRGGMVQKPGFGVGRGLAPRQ
# [25] = target: Reticulon-4 (Homo sapiens) (UniProt Q9NQC3)
# [26] = target: Ribosome-binding protein 1 (Homo sapiens) (UniProt Q9P2E9)
# [27] = target: S-adenosylhomocysteine hydrolase-like protein 1 (Homo sapiens) (UniProt O43865)
# [28] = target: Signal transducer and activator of transcription 3 (Homo sapiens) (UniProt P40763)
# Chain of Signal transducer and activator of transcription 3 (Homo sapiens) (P40763 2-770 limits assumed): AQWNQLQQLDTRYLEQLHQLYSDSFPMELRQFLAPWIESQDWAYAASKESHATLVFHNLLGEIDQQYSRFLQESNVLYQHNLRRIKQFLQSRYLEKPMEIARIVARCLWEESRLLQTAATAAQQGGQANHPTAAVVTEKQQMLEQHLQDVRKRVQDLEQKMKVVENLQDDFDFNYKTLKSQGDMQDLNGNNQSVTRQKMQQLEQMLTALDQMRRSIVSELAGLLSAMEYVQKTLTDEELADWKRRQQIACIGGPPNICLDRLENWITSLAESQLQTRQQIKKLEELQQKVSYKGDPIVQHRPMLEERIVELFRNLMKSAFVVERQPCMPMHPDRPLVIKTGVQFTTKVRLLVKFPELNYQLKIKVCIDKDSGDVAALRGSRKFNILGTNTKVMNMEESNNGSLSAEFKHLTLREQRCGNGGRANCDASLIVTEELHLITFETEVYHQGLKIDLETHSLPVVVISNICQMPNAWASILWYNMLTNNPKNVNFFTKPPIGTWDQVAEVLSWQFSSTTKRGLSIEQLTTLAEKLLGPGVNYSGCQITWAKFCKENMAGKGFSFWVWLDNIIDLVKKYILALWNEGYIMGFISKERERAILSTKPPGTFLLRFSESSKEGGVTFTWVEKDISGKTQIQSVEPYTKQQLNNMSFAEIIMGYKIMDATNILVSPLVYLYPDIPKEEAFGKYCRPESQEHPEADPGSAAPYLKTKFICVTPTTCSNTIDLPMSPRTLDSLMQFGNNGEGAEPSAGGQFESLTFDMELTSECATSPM
# [29] = target: Spectrin alpha chain, non-erythrocytic 1 (Homo sapiens) (UniProt Q13813)
# [30] = target: Spectrin beta chain (Homo sapiens) (UniProt Q01082)
# [31] = target: T-complex protein 1 subunit theta (Homo sapiens) (UniProt P50990)
# [32] = target: Tubulin alpha-4A chain (Homo sapiens) (UniProt P68366)
# Chain of Tubulin alpha-4A chain (Homo sapiens) (P68366 whole entry): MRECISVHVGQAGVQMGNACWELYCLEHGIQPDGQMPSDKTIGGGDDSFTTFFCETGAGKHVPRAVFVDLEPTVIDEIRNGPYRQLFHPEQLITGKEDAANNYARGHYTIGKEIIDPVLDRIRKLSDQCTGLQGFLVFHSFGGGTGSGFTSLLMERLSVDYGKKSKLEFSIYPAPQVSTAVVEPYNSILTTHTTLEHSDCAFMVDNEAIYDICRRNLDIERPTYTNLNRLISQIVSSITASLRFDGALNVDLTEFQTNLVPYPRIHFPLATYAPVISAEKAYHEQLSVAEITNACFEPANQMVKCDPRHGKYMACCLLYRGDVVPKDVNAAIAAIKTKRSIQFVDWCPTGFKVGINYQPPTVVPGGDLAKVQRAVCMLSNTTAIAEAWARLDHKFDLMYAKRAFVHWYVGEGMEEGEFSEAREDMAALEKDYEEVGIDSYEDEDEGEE
# [33] = target: Tubulin beta chain (Homo sapiens) (UniProt P07437)
# [34] = target: Tubulin beta-2A chain (Homo sapiens) (UniProt Q13885)
# Chain of Tubulin beta-2A chain (Homo sapiens) (Q13885 whole entry): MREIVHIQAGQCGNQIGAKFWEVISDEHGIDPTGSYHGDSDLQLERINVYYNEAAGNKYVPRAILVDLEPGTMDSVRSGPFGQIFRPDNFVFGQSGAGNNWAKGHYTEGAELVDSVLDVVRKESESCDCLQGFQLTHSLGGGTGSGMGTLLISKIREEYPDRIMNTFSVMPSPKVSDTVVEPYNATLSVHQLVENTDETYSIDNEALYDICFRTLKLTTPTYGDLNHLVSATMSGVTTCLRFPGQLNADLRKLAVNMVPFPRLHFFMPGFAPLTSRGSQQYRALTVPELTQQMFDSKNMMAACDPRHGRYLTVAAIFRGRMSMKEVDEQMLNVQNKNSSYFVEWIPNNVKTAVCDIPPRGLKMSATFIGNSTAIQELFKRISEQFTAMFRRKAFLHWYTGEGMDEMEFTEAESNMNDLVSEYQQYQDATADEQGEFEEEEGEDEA
# [35] = target: Y-box-binding protein 3 (Homo sapiens) (UniProt P16989)
# Chain of ADP/ATP translocase 2 (Homo sapiens) (P05141 2-298 limits assumed): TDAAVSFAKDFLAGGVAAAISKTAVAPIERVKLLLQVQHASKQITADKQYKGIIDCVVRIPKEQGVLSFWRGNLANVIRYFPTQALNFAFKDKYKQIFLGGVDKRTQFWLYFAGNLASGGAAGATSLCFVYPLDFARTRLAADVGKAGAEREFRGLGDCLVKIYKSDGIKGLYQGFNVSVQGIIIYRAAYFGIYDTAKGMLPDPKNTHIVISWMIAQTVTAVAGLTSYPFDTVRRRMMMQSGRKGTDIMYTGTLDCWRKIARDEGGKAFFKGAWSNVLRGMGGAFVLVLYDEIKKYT
substance,measurement,setting,value
i3XFLAG-NLS-CTDaa154-424,PSMs,[1],3 PSMs
same,PSMs,[2],5 PSMs
same,PSMs,[3],2 PSMs
same,PSMs,[4],11 PSMs
same,PSMs,[5],3 PSMs
same,PSMs,[6],31 PSMs
same,PSMs,[7],26 PSMs
same,PSMs,[8],11 PSMs
same,PSMs,[9],3 PSMs
same,PSMs,[10],11 PSMs
same,PSMs,[11],6 PSMs
same,PSMs,[12],62 PSMs
same,PSMs,[13],48 PSMs
same,PSMs,Filamin-C (Homo sapiens),7 PSMs
same,PSMs,[14],54 PSMs
same,PSMs,[15],14 PSMs
same,PSMs,[16],7 PSMs
same,PSMs,[17],3 PSMs
same,PSMs,[18],10 PSMs
same,PSMs,[19],3 PSMs
same,PSMs,[20],3 PSMs
same,PSMs,Plectin (Homo sapiens),21 PSMs
same,PSMs,[21],3 PSMs
same,PSMs,[22],2 PSMs
same,PSMs,[23],5 PSMs
same,PSMs,[24],2 PSMs
same,PSMs,[25],7 PSMs
same,PSMs,[26],68 PSMs
same,PSMs,[27],11 PSMs
same,PSMs,[28],3 PSMs
same,PSMs,[29],10 PSMs
same,PSMs,[30],9 PSMs
same,PSMs,[31],2 PSMs
same,PSMs,[32],39 PSMs
same,PSMs,[33],75 PSMs
same,PSMs,[34],61 PSMs
same,PSMs,[35],3 PSMs

# From US20250339531A1, “DUX4 POLYPEPTIDES AND NUCLEIC ACIDS FOR TREATING INFLAMMATORY AND AUTOIMMUNE CONDITIONS” (Fred Hutchinson Cancer Center, priority 2021, published 2025)
